# Test results as given in the supplement of paper PMC9732359.
# ± gives the uncertainty stated by the source.
# Assay: protein stability index of a GFP-peptide fusion (yeast GPS) (PSI 1-4); higher = more stable; sorted into four equal gates, so the index is relative within each strain
# In short: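 Peptides tiling yeast proteins in 17-residue segments were fused downstream of GFP, with Cherry expressed from the same plasmid. As a pooled library in yeast, mid-log cultures grown in leucine-free medium were sorted into four equal gates by GFP/Cherry fluorescence ratio. Gate plasmids were PCR-amplified and Illumina-sequenced, and barcodes linked reads to strains. Each peptide received a protein stability index equal to the sum of each gate's read frequency times its gate number.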
Sequence,protein stability index (doa10∆),protein stability index (pdr5∆),protein stability index (san1∆),protein stability index (ubr1∆)
GGGAARRQAVDVSPLRR [RPS5],2.28 ± 0.1,1.76 ± 0.056,2.15 ± 0.11,1.85 ± 0.093
GGGRVDKPLLKAGRAFH [RPL2A],3.12 ± 0.048,3.11 ± 0.043,2.95 ± 0.049,2.99 ± 0.03
GGHSLEEISFSLSEGCD [PRP28],2.17 ± 0.11,2.42 ± 0.067,1.93 ± 0.13,2.25 ± 0.094
GGPWFTDGELDIEFINS [RPC34],3.14 ± 0.15,3.42 ± 0.12,2.55 ± 0.21,3.17 ± 0.081
GGRYVYPVHEAHKGQIV [SNU114],1.58 ± 0.12,2.97 ± 0.11,3.01 ± 0.054,2.89 ± 0.063
GGSFGNREEFINKLVKA [RPL7B],3.01 ± 0.22,,,2.93 ± 0.078
GGSGNGDDVVNDVQGID [RPP1],3.54 ± 0.25,3.55 ± 0.25,3.27 ± 0.079,3.1 ± 0.1
GGSRGGGSNYMSNLPFG [RPC31],2.94 ± 0.27,3.21 ± 0.18,,3.14 ± 0.17
GHIGAYLIVAGVDPTGS [PUP1],1.48 ± 0.1,1.83 ± 0.093,1.68 ± 0.16,1.65 ± 0.11
GHVGSVQISNIPDIGDL [PRP8],3.11 ± 0.067,2.95 ± 0.053,2.79 ± 0.058,3.03 ± 0.046
GIAIGLNKGKKVTSMTP [RPL36A],3.08 ± 0.18,3.13 ± 0.12,,3.15 ± 0.1
GIDPQDLKKLNLNVYIQ [CDC53],1.68 ± 0.14,1.7 ± 0.12,1.42 ± 0.1,1.19 ± 0.083
GILRRKSESDELQMRSF [RRP4],3.06 ± 0.11,3.04 ± 0.17,3.18 ± 0.11,3.16 ± 0.084
GINPNTFRIFHNHDTGC [YDL088C/ASM4],1.83 ± 0.073,1.85 ± 0.082,1.4 ± 0.15,1.44 ± 0.047
GIRIKGKIVGFDEFMNV [SME1],3.15 ± 0.068,2.96 ± 0.098,3.23 ± 0.076,3.12 ± 0.099
GISKKTRIAGVVYHPSN [RPS8A],2.53 ± 0.03,2.456 ± 0.024,2.41 ± 0.032,2.403 ± 0.021
GKEFEARNLIEDEDDGE [RPC53],3.46 ± 0.16,3.58 ± 0.14,3.41 ± 0.1,2.94 ± 0.14
GKIPTLKISLIQIFRAH [PRP8],1.72 ± 0.045,1.44 ± 0.044,1.33 ± 0.073,1.29 ± 0.041
GKLVVSQEMVPRYFSEA [SIR3],3.31 ± 0.086,3.43 ± 0.17,3.38 ± 0.079,3.21 ± 0.12
GKVTDVRSTIKFQLKKV [RPL1A],3.77 ± 0.21,,3.01 ± 0.25,3.46 ± 0.13
GKVVGDKWESYLNLLQE [RPB10],3.24 ± 0.076,2.65 ± 0.086,2.49 ± 0.11,3.26 ± 0.055
GLFGNKPALGSLGSSST [YGR119C/NUP57],3.34 ± 0.089,2.63 ± 0.084,2.77 ± 0.048,3.21 ± 0.18
GLFGNKPNNTANTGGGL [YGL172W/NUP49],3.66 ± 0.17,3.65 ± 0.13,3.49 ± 0.062,3.56 ± 0.11
GLGETSGDNHTQQSHEQ [RPT4],3.32 ± 0.14,3.19 ± 0.21,,3.23 ± 0.22
GLLDLERVIVVTGFAEV [FAS2],2.9 ± 0.17,2.32 ± 0.095,2.21 ± 0.17,2.16 ± 0.11
GLLSQAIGCIERSDLLP [YJR042W/NUP85],2.37 ± 0.07,2.37 ± 0.064,2.43 ± 0.09,2.51 ± 0.069
GLRTENVLDYFAESPFF [MED6],3.35 ± 0.12,3.25 ± 0.18,2.94 ± 0.077,2.83 ± 0.047
GLSKEDDVRDFVIRREV [RPS6A],3.42 ± 0.094,3.42 ± 0.081,3.13 ± 0.13,3.68 ± 0.15

Sequence,protein stability index (doa10∆),protein stability index (pdr5∆),protein stability index (san1∆),protein stability index (ubr1∆)
GLTNWAAAYATGLLIAR [RPL5],1.39 ± 0.18,1.26 ± 0.084,1.14 ± 0.13,1.1 ± 0.027
GLVDENKVEAFKSLYTF [YAR002W/NUP60],3.01 ± 0.089,2.65 ± 0.08,3.39 ± 0.054,2.83 ± 0.043
GLWGFSTATRNVTMIDD [COR1],3.18 ± 0.083,3.1 ± 0.08,3.02 ± 0.064,2.85 ± 0.066
GMPNMPGMPNMPGMPNM [SRP54],3.37 ± 0.088,3.21 ± 0.064,3.13 ± 0.061,3.14 ± 0.051
GMRVGVDRSKYNIELPL [RPT1],,,3.52 ± 0.16,
GMVKLNEYPVADAVTKD [REC8],,2.87 ± 0.2,3.28 ± 0.043,3.36 ± 0.052
GNAPATPSSDQNPLPTR [SOH1],3.44 ± 0.13,2.98 ± 0.065,2.63 ± 0.077,3.17 ± 0.067
GNENFEDFDVEHFSDEE [RPO26],3.05 ± 0.088,3.1 ± 0.088,2.95 ± 0.085,3.17 ± 0.082
GNGLVDENKVEAFKSLY [YAR002W/NUP60],3.35 ± 0.1,3.14 ± 0.12,3.53 ± 0.056,3.3 ± 0.053
GNIFADLLPNSFAKLVP [SMC2],2.36 ± 0.045,2.86 ± 0.04,2.58 ± 0.05,2.62 ± 0.043
GNKLVELMRIISRNGDT [SMC1],,,,3.28 ± 0.25
GNMCRGGRMFAPTKTWR [RPL4A],2.92 ± 0.078,2.61 ± 0.12,3.04 ± 0.063,2.34 ± 0.053
GNNPSWVNNPKKRFTPH [YDL088C/ASM4],3.42 ± 0.23,,,
GNRNSSSVFLPSRKDCM [BRR2],3.18 ± 0.086,3.16 ± 0.071,3.2 ± 0.057,3.22 ± 0.074
GNSFNKSSNDTIEHAAD [YCG1],2.14 ± 0.058,2.67 ± 0.048,2.37 ± 0.047,2.64 ± 0.057
GPEITPEEATTIFSVMV [PRP8],2.09 ± 0.13,2.37 ± 0.14,1.77 ± 0.22,2.6 ± 0.13
GPGFKFVDLNEKELQNE [SRB4],2.64 ± 0.17,,,2.85 ± 0.14
GPSIYKTDPAGYYVGYK [SCL1],3.17 ± 0.092,3.4 ± 0.08,3.33 ± 0.059,3.38 ± 0.091
GPVGKECADLWPRVASN [RPL23A],3.2 ± 0.13,3.3 ± 0.11,3.17 ± 0.1,3.23 ± 0.057
GQEYPRIIGLSATLPNY [BRR2],1.9 ± 0.047,2.2 ± 0.044,1.96 ± 0.057,1.81 ± 0.046
GQFVTLGCTLVTLLANV [RMP1],2.8 ± 0.11,2.89 ± 0.11,2.73 ± 0.1,2.58 ± 0.048
GQQKIILSKKWGFTNLD [RPL10],2.68 ± 0.22,,,2.29 ± 0.21
GQRPDRATTYEKLTMVF [SIN4],1.27 ± 0.087,1.48 ± 0.067,1.53 ± 0.19,1.14 ± 0.11
GQVSMSQFNGSGNGSNP [PGD1],3.3 ± 0.11,3.3 ± 0.12,2.93 ± 0.077,3.2 ± 0.068
GRETILSNFNADINLEE [SIR3],3.14 ± 0.094,3.17 ± 0.11,2.85 ± 0.067,2.99 ± 0.07
GRKHVAALRTVKSLVDN [RPL9A],2.99 ± 0.12,3.17 ± 0.079,2.91 ± 0.092,2.96 ± 0.071
GRLASTIAKQVLNGQKI [RPL16B],3.42 ± 0.28,2.69 ± 0.11,,2.58 ± 0.13
